Reference: the supplement of paper PMC6757056
± gives the standard deviation of the averaged measurements.

B1: library; a variant is named by its letters at N, in order (parent)
chain: GCUGUCACCGGUGUAUUACCCUAGUGGUCGACCGGUCUGAUGAGUCUNNNNNNAGACGAAACAGC

Key:
hypoxanthine [1] = variants of: B1; assay: normalized RNA/DNA level with ligand (relative to sTRSVctl = 100) (log10 (% of sTRSVctl)); ligand: hypoxanthine (xanthine aptamer); higher = less ribozyme self-cleavage, higher mRNA level; conditions: ligand concentration (+) RNA-Seq: 5 mM, HEK293T, reporter: mCherry (pCS4076), ligand present: yes
Procedure, shortened: (§1)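 Library plasmids encoding reporter-linked ribozyme switches (mCherry, or eGFP for some folinic acid experiments) were transfected into HEK293T at 4 µg per 6-well well. Ligand, when used, was added 1 h before transfection. Total RNA was extracted with EDTA 72 h later, then reverse-transcribed, amplified, barcoded and sequenced. RNA level was RNA reads over DNA reads, divided by a spiked-in non-cleaving control (or the top 25 sequences), ×100, log10; only sequences with ≥100 DNA reads were kept.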

hypoxanthine [2] = variants of: B1; assay: normalized RNA/DNA level without ligand (relative to sTRSVctl = 100) (log10 (% of sTRSVctl)); ligand: hypoxanthine (xanthine aptamer); higher = less ribozyme self-cleavage, higher mRNA level; conditions: HEK293T, reporter: mCherry (pCS4076), ligand present: no
Procedure, shortened: as §1

AGAUCA
normalized RNA/DNA level with ligand (log10) (hypoxanthine [1]): 1.97 ± 0.049
normalized RNA/DNA level without ligand (log10) (hypoxanthine [2]): 1.81 ± 0.045

AGAUCG
normalized RNA/DNA level with ligand (log10) (hypoxanthine [1]): 1.89 ± 0.031
normalized RNA/DNA level without ligand (log10) (hypoxanthine [2]): 1.55 ± 0.048

AGAUCU
normalized RNA/DNA level with ligand (log10) (hypoxanthine [1]): 1.94 ± 0.051
normalized RNA/DNA level without ligand (log10) (hypoxanthine [2]): 1.829 ± 0.015

AGAUCC
normalized RNA/DNA level with ligand (log10) (hypoxanthine [1]): 1.936 ± 0.0091
normalized RNA/DNA level without ligand (log10) (hypoxanthine [2]): 1.874 ± 0.0045

UGCGAG
normalized RNA/DNA level with ligand (log10) (hypoxanthine [1]): 1.868 ± 0.0049
normalized RNA/DNA level without ligand (log10) (hypoxanthine [2]): 1.658 ± 0.009

UGCGAU
normalized RNA/DNA level with ligand (log10) (hypoxanthine [1]): 1.933 ± 0.011
normalized RNA/DNA level without ligand (log10) (hypoxanthine [2]): 1.79 ± 0.081

UGCGAA
normalized RNA/DNA level with ligand (log10) (hypoxanthine [1]): 1.86 ± 0.021
normalized RNA/DNA level without ligand (log10) (hypoxanthine [2]): 1.724 ± 0.013

UGCGAC
normalized RNA/DNA level with ligand (log10) (hypoxanthine [1]): 1.96 ± 0.0073
normalized RNA/DNA level without ligand (log10) (hypoxanthine [2]): 1.77 ± 0.028

AGCAGU
normalized RNA/DNA level with ligand (log10) (hypoxanthine [1]): 1.83 ± 0.03
normalized RNA/DNA level without ligand (log10) (hypoxanthine [2]): 1.44 ± 0.036

GGCGUA
normalized RNA/DNA level with ligand (log10) (hypoxanthine [1]): 1.908 ± 0.015
normalized RNA/DNA level without ligand (log10) (hypoxanthine [2]): 1.858 ± 0.00033

GGCGUC
normalized RNA/DNA level with ligand (log10) (hypoxanthine [1]): 1.94 ± 0.073
normalized RNA/DNA level without ligand (log10) (hypoxanthine [2]): 1.901 ± 0.014

GGCGUU
normalized RNA/DNA level with ligand (log10) (hypoxanthine [1]): 2.0064 ± 0.00076
normalized RNA/DNA level without ligand (log10) (hypoxanthine [2]): 1.966 ± 0.011

GGACCA
normalized RNA/DNA level with ligand (log10) (hypoxanthine [1]): 1.916 ± 0.0027
normalized RNA/DNA level without ligand (log10) (hypoxanthine [2]): 1.881 ± 0.0056

GGACCC
normalized RNA/DNA level with ligand (log10) (hypoxanthine [1]): 1.96 ± 0.065
normalized RNA/DNA level without ligand (log10) (hypoxanthine [2]): 1.93 ± 0.023

GGACCU
normalized RNA/DNA level with ligand (log10) (hypoxanthine [1]): 1.98 ± 0.056
normalized RNA/DNA level without ligand (log10) (hypoxanthine [2]): 1.9838 ± 0.0012

UGCCUU
normalized RNA/DNA level with ligand (log10) (hypoxanthine [1]): 1.939 ± 0.0041
normalized RNA/DNA level without ligand (log10) (hypoxanthine [2]): 1.9 ± 0.093

CGAUGA
normalized RNA/DNA level with ligand (log10) (hypoxanthine [1]): 1.93 ± 0.018
normalized RNA/DNA level without ligand (log10) (hypoxanthine [2]): 1.79 ± 0.057

CGAUGU
normalized RNA/DNA level with ligand (log10) (hypoxanthine [1]): 1.98 ± 0.04
normalized RNA/DNA level without ligand (log10) (hypoxanthine [2]): 1.878 ± 0.016

CGAUGC
normalized RNA/DNA level with ligand (log10) (hypoxanthine [1]): 1.9 ± 0.07
normalized RNA/DNA level without ligand (log10) (hypoxanthine [2]): 1.829 ± 0.0038

AGCGGU
normalized RNA/DNA level with ligand (log10) (hypoxanthine [1]): 1.91 ± 0.024
normalized RNA/DNA level without ligand (log10) (hypoxanthine [2]): 1.55 ± 0.049

AGCGGC
normalized RNA/DNA level with ligand (log10) (hypoxanthine [1]): 1.959 ± 0.012
normalized RNA/DNA level without ligand (log10) (hypoxanthine [2]): 1.86 ± 0.042

UGAUGG
normalized RNA/DNA level with ligand (log10) (hypoxanthine [1]): 1.92 ± 0.062
normalized RNA/DNA level without ligand (log10) (hypoxanthine [2]): 1.51 ± 0.064

UGAUGC
normalized RNA/DNA level with ligand (log10) (hypoxanthine [1]): 1.95 ± 0.059
normalized RNA/DNA level without ligand (log10) (hypoxanthine [2]): 1.852 ± 0.014

UGAUGU
normalized RNA/DNA level with ligand (log10) (hypoxanthine [1]): 1.91 ± 0.02
normalized RNA/DNA level without ligand (log10) (hypoxanthine [2]): 1.67 ± 0.022

AGAGGG
normalized RNA/DNA level with ligand (log10) (hypoxanthine [1]): 1.837 ± 0.0044
normalized RNA/DNA level without ligand (log10) (hypoxanthine [2]): 1.44 ± 0.035

AGAGGC
normalized RNA/DNA level with ligand (log10) (hypoxanthine [1]): 1.987 ± 0.014
normalized RNA/DNA level without ligand (log10) (hypoxanthine [2]): 1.86 ± 0.068

GGACAG
normalized RNA/DNA level with ligand (log10) (hypoxanthine [1]): 1.85 ± 0.055
normalized RNA/DNA level without ligand (log10) (hypoxanthine [2]): 1.468 ± 0.0059

GGACAU
normalized RNA/DNA level with ligand (log10) (hypoxanthine [1]): 1.886 ± 0.0069
normalized RNA/DNA level without ligand (log10) (hypoxanthine [2]): 1.8 ± 0.038

AGACUA
normalized RNA/DNA level with ligand (log10) (hypoxanthine [1]): 1.95 ± 0.056
normalized RNA/DNA level without ligand (log10) (hypoxanthine [2]): 1.762 ± 0.0092
